Laboratory results published in the RNAGym collection of RNA variant scans (doi:10.1073/pnas.2313332121).

B1: TPR t1 (parent)
chain: GACCAAUCUGCCCUCAGAGCUCGAGAACAUCUUCGGAUGCAGAGGAGGCAGGCUUCGGUGGCGCGAUAGCGCCAACGUCCUCAACCUCCAAUGCAUCCCACCACAUGAUGAUGCCUGAAGAGCCUUGGUUUUUUG

Variants of: B1
Test: polymerase ribozyme fitness, log enrichment relative to wild type (log ratio); higher = more active; in vitro selection for triplet polymerase activity
Summary of the method: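 A single round of triplicate in vitro selection, including frozen incubation at −7 °C, was applied to PCR-built, transcribed mutant libraries of each subunit of a heterodimeric triplet polymerase ribozyme. Illumina sequencing of input and output libraries retained genotypes with ≥10 input reads and ≥1 read per output. Fitness is the base-2 logarithm of genotype enrichment divided by wild-type enrichment, from inverse-variance-weighted replicate averages.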

Point of comparison: C20U G39U C89U A119U U130G, “polymerase ribozyme fitness (log ratio)” value -4.97. Against it:
- G19A G77U U81A C114A — higher, -1.67
- C20A — higher, -2.6
- C20G — higher, -3.76
- C20U — higher, -1.26
- U21G A84U C114A — higher, -1.88
- C20U A27G C72A C82U A84G U116C — lower, -7.5
- C20U G48U — higher, -2.05
- C20G C62U U125A — lower, -5.73
- C20U C73U — higher, -1.6
- C20U A26C G42U U54G C64U G122A C124A — lower, -6.48
- U21A C53U C85U — higher, -2.21
- C20G U38G C76G — lower, -5.6
- C20A C56A C72G A90G — within 0.2 log units, -4.82
- G19A U54C C73G C82G C114G — higher, -4.42
- C20A A84G C86A G128U U130C — higher, -3.64
- C20G C62U — higher, -3.29
- G19A C49U G113U — higher, -2.65
- U21G A24G — higher, -2.02
- C20G A50U U78C U96G U112A A118G — lower, -6.42
- G19A G77C — higher, -2.48
- C20U G42U C73U — higher, -2.41
- C20G C56U C82A G113C — higher, -2.04
- C20A U131A — higher, -3.53
- U21C C101A — higher, -0.445
- U21A G63C — higher, -0.995
- C20U C62U U92A C97U — lower, -5.74
- U21A G45A U59G G71A — higher, -4.25
- C20U U81C — higher, -1.54
- U21A G60A A90G — higher, -0.182
- C20U C40U G60U C82A U96A C124A — higher, -1.54
- C20U C28A G93U G110C — within 0.2 log units, -4.8
- C20U G113C — higher, -2.2
- C20U G113A — higher, 1.4
- C20U G77U — higher, -1.15
- U21C C70U — higher, -0.476
- G19C G42C C124G — higher, -0.406
- C20U G93U — higher, -3.35
- C20A C28G C70G A83U C99U G113U — lower, -6.88
- C20U U78C C124G — higher, 0.066
- C20A A46U — higher, -4.55
- C20A A24U U54A C115G — lower, -6.69
- C20U U33A — lower, -5.51
- U21G C31U U78C C85A U112G — lower, -5.44
- C20A A41C C82A — higher, -4.5
- C20G U32A C53G U54C G57U C97G G113A — lower, -6.61
- G19U C123A — higher, -2.59
- C20U U21C U116C — higher, -2.85
- G19C G63C — higher, -2.72
- G19C G36C G71U U112G U116C — higher, -3.91
- U21A A29C — higher, -3.14
- C20A C88G — higher, -3.11
- C20G A37U C62G C70U U112A — lower, -6.02
- U21G A66G C73A C94A — higher, -4.63
- A18U U30A A37G A108U — higher, -3.64
- G19A C114A — higher, -1.55
- G19C A37U C124U — higher, -1.48
- C20A G58U G71U C89G — within 0.2 log units, -5.13
- C20G A43G — higher, -3.54
- C20A G48U — higher, -3.37
- C20A G71U — higher, -2.48
- G19A G63A — higher, -3.09
- C20A G122A — higher, -3.47
- G19C G45A U78C C82G U112C — higher, -1.42
- G19U A41C G48U G120U — higher, -4.33
- G19U G69A U106C C114A G120C — higher, -2.51
- C20A G36U G77U U116C — within 0.2 log units, -5.13
- C20A C40A C72U C73U — higher, -4.3
- C20U U38G C72U C102U — within 0.2 log units, -5.01
- C20G C40U C124U U126C — higher, -4.35
- G19U C89U G120C — higher, -2.25
- G19A G63A A111G — higher, -1.39
- C20U G39A G110U G128A — lower, -5.92
- U21A G117U — higher, -1.55
- U21C C22A A43C — higher, -4.05
- C20A G61A — higher, -2.67
- U21A C62U U92C U116C A119G — higher, 0.3
- U21C U54A C64A U78C G93A A111C — lower, -6.03
- G19C A84G — higher, -3.14
- G19A G48U C53G G58U U59A — higher, -3.69
- C20G C76U — higher, -3.75
- G19U G48U C79A C85A G120C U130C — lower, -5.41
- C20G G93C — higher, -4.4
- U21C C22A C88U — higher, -4.68
- G19U U55G C70U — higher, -3.42
- C20A U32C C56U G57U G60U C62G — lower, -5.9
- C20G C99G G110C — lower, -7.02
- C20U A83C U112G — higher, -2.09
- C20U C62A — higher, -2.35
- U21G G60A G63C U78A C115U A119U U130A — higher, -4.71
- C20A G120U — higher, -2.44
- C20A G120C — higher, -1.75
- U21A G60U A90G — higher, 0.0218
- G19C G52A C88A U112G C114A — lower, -6.11
- G19U A46C — higher, -3.44
- G19C G93A C104U U112C — higher, -0.693
- U21A U38A G42A G44A U55G — higher, -2.99
- C20A C64G C114A — lower, -7.24
- C20G G60A — higher, -3.55
- C20U U54A C73A C115G — higher, -3.1
- A18U U81A C114A — higher, -3.7
- G19U A74U G113A — higher, -2.19
- U21G G36A — higher, -2.46
- G19A C76U C124U — higher, -1.46
- U21A A26G C40G C49A — higher, -3.04
- U21C C28U C101G G110C — lower, -5.65
- U21G U59A A83U C123U U131C — higher, -0.796
- U21C A84C C124G U131C — higher, 1.43
- G19A C53U — higher, -2.82
- U21C G35C C73G A83C — lower, -5.87
- U21A G60U — higher, -0.289
- G19A C62A C82A G93U U112A — higher, -2.13
- U21A C72G A75U C85U — higher, -1.63
- C20U U96A U130G — higher, -4.47
- C20A C115U — higher, -3.52
- C20U G36C C89G — higher, -3.93
- U21C U55G U59G G71U C115G — higher, -4.57
- G19U C53G — higher, -2.76
- C20A C64U U78C U96A C102G C114A — lower, -6.83
- A18U U59G G60A — higher, -4.56
- U21G A37C G44U — higher, -3.59
- C20G U133G — higher, -3.81
- C20G C115U — higher, -4.25
- C20U G36A G48C G113A — higher, 0.28
- G19U U54G A68G C70G G117C — lower, -5.56
- G19A U32A A84U — lower, -6.42
- C20G A43G C89A — higher, -3.78
- C20U C64U C114U A118G U131A — higher, -0.511
- C20A C49A U81A C104U G120C U133A G135U — higher, -2.32
- U21C C22A C101G G110A — lower, -6.05
- U21C U92G U96G A100C C124G — lower, -5.43
- C20A C73G — higher, -3.25
- C20A A66G — higher, -4.25
- C20G C40U — higher, -2.61
- G19A A66U C101U — higher, -4.61
- U21G C53U C123G — higher, 0.377
- C20A C114A — higher, -2.56
- C20A U32A C70U G93C — lower, -6.8
- C20A A84U A90G C98G U109A A121U — higher, -3.83
- C20A C98G — lower, -5.84
- C20A A29U C62U A119U U129G — higher, -4.53
- C20U C28A — higher, -3.79
- U21G A41U G60C C80U U92C C97A A121U — lower, -8.22
- U21C A41U G120A — higher, -0.65
- C20A G57U C97A C115A U116C — lower, -6.48
- G19A C56G U106A G113C — higher, -1.09
- G19C G57A G69U C85G — higher, -4.01
- G19C G36A G48A C82U C124A — higher, -3.64
- C20G C89U U109G U132C — higher, -3.87
- C20G A26G C64A C70U U78C U112A — lower, -5.93
- C20G G35U A95C G117U — higher, -4.02
- G19C C72A C124A U129G — higher, -0.719
- C20U C73U G110U G120U A121G — higher, -3
- C20A C101U — higher, -3.43
- G19U C101A — higher, -4.08
- C20A U32G G35C U59G G61A A74C — higher, -4.63
- U21G G47A C114A C123G U125A — higher, -1.52
- G19A C72U — higher, -3.79
- U21C A41G G44A C56U C98U U112A — higher, -1.55
- U21C A27U G36C A111U — within 0.2 log units, -4.98
- C20A G36A A84G A118G — lower, -5.67
- G19C A41C C70G G120U — lower, -6.52
- C20U C73G C114G — higher, -1.71
- G19U G110C — within 0.2 log units, -5.06
- U21C C22G C34A C49A A84G C123U U125G U133C — higher, -4.3
- U21C A37G C62A G117A — higher, -3.01
- U21G C73U — higher, -1.84
